Three molecules from paper PMC546145 can be followed below.

Like-named read-outs stand apart in the source and are kept apart here.

Holding throughout (assay): competition EMSA
The target in data set [1] is T1, Ku heterodimer, Ku70 subunit;Ku heterodimer, Ku80 subunit (human;human, UniProt P12956;P13010 1-609;1-732, |).
The target in data set [2] is T1, Ku heterodimer, Ku70 subunit;Ku …. The source holds these as a separate data set.
Data set [3] shares this target. This is another data set of the same source.

T1 sequence (P12956 whole entry, chain 1 of 2): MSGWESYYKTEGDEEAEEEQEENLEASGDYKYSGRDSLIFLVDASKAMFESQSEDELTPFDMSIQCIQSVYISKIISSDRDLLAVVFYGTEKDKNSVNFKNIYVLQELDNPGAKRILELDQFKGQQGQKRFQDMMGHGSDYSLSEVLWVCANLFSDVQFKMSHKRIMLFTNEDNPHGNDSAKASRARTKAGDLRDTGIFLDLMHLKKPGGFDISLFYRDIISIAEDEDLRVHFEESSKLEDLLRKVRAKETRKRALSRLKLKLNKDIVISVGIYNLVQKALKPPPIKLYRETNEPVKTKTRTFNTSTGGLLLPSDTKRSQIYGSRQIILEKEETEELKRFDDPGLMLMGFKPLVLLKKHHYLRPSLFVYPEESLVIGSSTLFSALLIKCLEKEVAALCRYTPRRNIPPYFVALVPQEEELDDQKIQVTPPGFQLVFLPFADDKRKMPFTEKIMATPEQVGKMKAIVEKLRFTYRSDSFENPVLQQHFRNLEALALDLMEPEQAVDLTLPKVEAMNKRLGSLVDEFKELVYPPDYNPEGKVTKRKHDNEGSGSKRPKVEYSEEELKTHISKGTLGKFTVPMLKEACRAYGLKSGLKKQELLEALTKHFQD
T1 sequence (P13010 whole entry, chain 2 of 2): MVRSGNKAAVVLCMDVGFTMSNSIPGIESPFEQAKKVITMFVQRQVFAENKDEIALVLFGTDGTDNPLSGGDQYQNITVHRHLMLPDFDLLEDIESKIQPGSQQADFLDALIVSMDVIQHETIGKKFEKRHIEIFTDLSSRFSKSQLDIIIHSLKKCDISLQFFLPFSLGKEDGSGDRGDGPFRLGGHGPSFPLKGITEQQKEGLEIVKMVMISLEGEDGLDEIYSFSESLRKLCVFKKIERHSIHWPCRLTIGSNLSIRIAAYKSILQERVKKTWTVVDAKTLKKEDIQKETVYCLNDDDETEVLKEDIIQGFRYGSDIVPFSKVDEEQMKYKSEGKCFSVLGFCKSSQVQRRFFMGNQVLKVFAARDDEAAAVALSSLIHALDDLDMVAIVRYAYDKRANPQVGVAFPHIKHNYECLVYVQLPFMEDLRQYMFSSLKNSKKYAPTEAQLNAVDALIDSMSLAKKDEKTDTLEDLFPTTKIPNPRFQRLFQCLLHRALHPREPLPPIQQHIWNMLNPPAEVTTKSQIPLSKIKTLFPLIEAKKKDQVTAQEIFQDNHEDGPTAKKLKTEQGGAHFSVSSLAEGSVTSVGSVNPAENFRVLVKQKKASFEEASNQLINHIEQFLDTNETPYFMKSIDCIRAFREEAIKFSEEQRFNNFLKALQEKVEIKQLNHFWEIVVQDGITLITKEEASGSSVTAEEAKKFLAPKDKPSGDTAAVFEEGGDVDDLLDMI

B1: MP/5B + Pt (dsDNA)
DNA 1: CCCCTCTCCTTCTTGGCTTCTTCCTTCCCC
DNA 2: GGGGAAGGAAGAAGCCAAGAAGGAGAGGGG
modifications: cisplatin adduct at central GG of strand 1 (15-16); 5' biotin on strand 2
Turning to B1, in data set [1], the binding result is listed as “binds”.

B2: 5P/5B undamaged (dsDNA)
DNA 1: CCCCTGGCTTTCTTTTCCTCTTCCTTCCCC
DNA 2: GGGGAAGGAAGAGGAAAAGAAAGCCAGGGG
modifications: 5' biotin on strand 2
As to B2, the binding result in data set [2] was “binds”.

B3: MP/3B + Pt (dsDNA)
DNA 1: CCCCTCTCCTTCTTGGCTTCTTCCTTCCCC
DNA 2: GGGGAAGGAAGAAGCCAAGAAGGAGAGGGG
modifications: cisplatin adduct at central GG of strand 1 (15-16); 3' biotin on strand 2
For the molecule B3, in data set [3], the binding result was “binds”.
